One assay deals with T1, B4C.
T1 construct: Chimeric: mouse VH and VL fused to constant regions of human IgG1 heavy chain and kappa light chain; also called the chimeric version of mouse mAb B4; B4 (human IgG1 heavy chain and kappa light chain chimeric)
Description: ELISA peptide competition: peptide (1X, 10X, 50X) preincubated with chimeric IgG1 B4, competitor hLAG3-mFc; capture on anti-human IgG, anti-mouse IgG-HRP. As for the experimental part:
(§1) Then human LAG-3 extracellular domain (ECD) fused to mouse Fc (hLAG3-mFc) was added (the final peptide concentration was 600-fold that of hLAG3-mFc) and the mixture was incubated for 60 minutes before being added to an ELISA plate coated with anti-human IgG. The incubation was carried out at 4° C. overnight. After washing, the hLAG3-mFc bound to the immobilized B5/IgG4 on the ELISA plate was detected by adding anti-mouse IgG conjugated to horseradish peroxidase (HRP) and incubating for 60 minutes. Then, after washing, the ELISA was developed using One-step Detection Solution and measured as the absorbance at 450 nm.
(§2) FIGS. 9A-9B show the effect of competition peptides on LAG-3 binding to anti-LAG-3 mAbs.
(§3) Anti-human IgG in carbonate coating buffer was coated on an ELISA plate at 4° C. (50 μL/well at 1 μg/mL) overnight. In each well of a separate plate, a chimeric version of a given anti-LAG-3 mAb (50 μL/well at 1.4 nM) and a competition peptide (50 μL/well at various concentrations as indicated in the figures) were mixed and incubated for 30 minutes at room temperature. Then human LAG-3 extracellular domain (ECD) fused to mouse Fc (hLAG3-mFc) was added to each well (50 μL/well at 2 nM) and the final mixture was incubated at room temperature for 60 minutes before added to the ELISA plate (50 μL/well) for another 60-minute incubation. The final incubation after adding the mixture to the ELISA plate was also performed at 4° C. overnight in some assays.

For the next assay, the target named is T2, B3C.
T2 construct: Chimeric: mouse VH and VL fused to constant regions of human IgG1 heavy chain and kappa light chain; also called the chimeric version of mouse mAb B3; B3 (human IgG1 heavy chain and kappa light chain chimeric)
Description: ELISA peptide competition: peptide (1X, 10X, 50X) preincubated with chimeric IgG1 B3, competitor hLAG3-mFc; capture on anti-human IgG, anti-mouse IgG-HRP. As for the experimental part: as §1, §2, §3
(An ELISA detects its analyte on a solid surface through an enzyme-linked reagent.)

The next assay addresses T3, B5/IgG4.
T3 construct: Chimeric: mouse VH and VL with human IgG4 heavy chain and kappa light chain constant regions; also called B5 (human IgG4 heavy chain and kappa light chain chimeric)
Description: ELISA peptide competition: peptide preincubated with B5/IgG4, competitor hLAG3-mFc; peptide at 600-fold hLAG3-mFc; capture on anti-human IgG, anti-mouse IgG-HRP. As to the method:
as §1, with “FIGS. 5A-5D show the effect of competition peptides on LAG-3 binding to anti-LAG-3 mAbs. […] B5/IgG4 was preincubated with a competition peptide for 30 minutes. Then human” for “Then human”
as §3, with “assays. The plate was washed and the binding of hLAG3-mFc to the immobilized anti-LAG-3 mAb was detected by adding anti-mouse IgG conjugated to horseradish peroxidase ([…]) (ThermoFisher Scientific, Cat#: A16084; Waltham, Mass.) and incubating for 60 minutes.” for “assays.”

The target of assay [1] is T4, BG29 (human IgG4 heavy chain and kappa light chain chimeric).
T4 construct: Chimeric: mouse VH and VL with human IgG4 heavy chain and kappa light chain constant regions; also called chimeric BG29
Description: ELISA peptide competition: peptide preincubated with chimeric IgG4 BG29, competitor hLAG3-mFc; peptide at 200-fold hLAG3-mFc; capture on anti-human IgG, anti-mouse IgG-HRP. As for the experimental part:
as §1, with “FIGS. 5A-5D show the effect of competition peptides on LAG-3 binding to anti-LAG-3 mAbs. […] B5/IgG4 was preincubated with a competition peptide for 30 minutes. Then human” for “Then human”
as §3, with “assays. The plate was washed and the binding of hLAG3-mFc to the immobilized anti-LAG-3 mAb was detected by adding anti-mouse IgG conjugated to horseradish peroxidase ([…]) (ThermoFisher Scientific, Cat#: A16084; Waltham, Mass.) and incubating for 60 minutes.” for “assays.”

Assay [2] concerns the target T5, B12 (human IgG1 heavy chain and kappa light chain chimeric).
T5 construct: Chimeric: mouse VH and VL with human IgG1 heavy chain and kappa light chain constant regions
Description: ELISA peptide competition: peptide preincubated with chimeric IgG1 B12, competitor hLAG3-mFc; peptide at 600-fold hLAG3-mFc; capture on anti-human IgG, anti-mouse IgG-HRP. As for the experimental part: as §1, with “FIGS. 5A-5D show the effect of competition peptides on LAG-3 binding to anti-LAG-3 mAbs. […] B5/IgG4 was preincubated with a competition peptide for 30 minutes. Then human” for “Then human”
as §3, with “assays. The plate was washed and the binding of hLAG3-mFc to the immobilized anti-LAG-3 mAb was detected by adding anti-mouse IgG conjugated to horseradish peroxidase ([…]) (ThermoFisher Scientific, Cat#: A16084; Waltham, Mass.) and incubating for 60 minutes.” for “assays.”

In another assay the target is T6, human LAG-3(ECD)-huFc (human, UniProt P18627 23-450).
T6 construct: also called Fc-tagged human LAG-3(ECD)-huFc; not shown: human Fc (huFc) at the C-terminus
T6 sequence: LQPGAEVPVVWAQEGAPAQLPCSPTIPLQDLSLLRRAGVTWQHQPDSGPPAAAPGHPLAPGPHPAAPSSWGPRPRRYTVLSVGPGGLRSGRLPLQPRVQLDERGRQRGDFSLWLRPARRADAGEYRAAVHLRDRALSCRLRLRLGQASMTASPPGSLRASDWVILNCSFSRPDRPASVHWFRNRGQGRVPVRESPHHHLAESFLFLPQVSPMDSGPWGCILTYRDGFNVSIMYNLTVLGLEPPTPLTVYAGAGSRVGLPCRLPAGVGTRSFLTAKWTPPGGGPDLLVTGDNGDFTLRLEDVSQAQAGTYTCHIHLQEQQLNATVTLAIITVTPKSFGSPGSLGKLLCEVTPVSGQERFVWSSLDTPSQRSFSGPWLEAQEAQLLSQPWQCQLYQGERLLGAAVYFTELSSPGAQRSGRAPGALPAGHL
Description: SPR (Biacore): mAb from hybridoma supernatant captured on anti-mouse IgG CM5 chip, human LAG-3(ECD)-huFc 50-400 nM injected. As for the experimental part: Anti-mouse IgG antibodies were immobilized via amine coupling on CM5 chip surface. Anti-LAG-3 mAbs in hybridoma supernatants were captured on the chip surface and a series of concentrations (50-400 nM) of human LAG-3(ECD)-huFc protein were injected and passed through the captured surface. The on and off rates for antibody-antigen binding were measured, curve fitted and calculated.
(In SPR one partner is held on a chip, and binding of the other changes the refractive index at the surface.)

The target in the next assay is T7, B7/IgG4.
T7 construct: Chimeric: mouse VH and VL with human IgG4 heavy chain and kappa light chain constant regions; also called B7 (human IgG4 heavy chain and kappa light chain chimeric)
Description: ELISA peptide competition: peptide preincubated with B7/IgG4, competitor hLAG3-mFc; peptide at 600-fold hLAG3-mFc; final incubation 60 min at room temperature; anti-mouse IgG-HRP. As to the method: as §1, with “B5/IgG4 was preincubated with a competition peptide for 30 minutes. Then human” for “Then human”
The assay condition is the same as in FIG. 5A except that the final incubation of the mAb, the competition peptide, and hLAG3-mFc on the ELISA plate was performed at room temperature for 60 minutes instead of incubation at 4° C. overnight.
as §3, with “incubation.” for “incubation. The final incubation after adding the mixture to the ELISA plate was also performed at 4° C. overnight in some assays.”

Positions count from the first letter of the chain named.

T3 sequence (VH, as listed by the source, chain 1 of 2): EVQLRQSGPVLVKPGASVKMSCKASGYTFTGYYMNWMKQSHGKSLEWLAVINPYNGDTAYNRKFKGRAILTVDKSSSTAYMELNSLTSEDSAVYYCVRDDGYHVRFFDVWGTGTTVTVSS
T3 sequence (VL, as listed by the source, chain 2 of 2): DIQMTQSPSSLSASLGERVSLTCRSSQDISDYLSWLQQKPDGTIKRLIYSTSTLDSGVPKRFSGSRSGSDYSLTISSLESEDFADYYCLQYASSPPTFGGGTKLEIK

Take PGPHPAAPSSWG (also called peptide 13-24) [13-24]: the binding result in the assay with B4C and in the assay with B3C was “binds” throughout.

For GPPAAAPGHPLAP (also called peptide 1-13) [1-13], the binding result (with B5/IgG4; in assay [1]) was “binds” throughout.

On to GPPAAAPGHPLAPG (also called peptide 1-14) [1-14], for which the binding result (with B5/IgG4; in assay [1]; in assay [2]) was “binds” throughout.

GPHPAAPSSWG (also called peptide 14-24) [14-24]: the binding result with B4C and in the assay with B3C was “binds” throughout.

In the case of PGHPLAPGPHPAAPSSW (also called peptide 7-23) [7-23], the binding result with B4C and with B3C was “binds” each time.

B1: B11 (antibody, V domains shown)
VH: EVQLQQSGPVLVRPGASVKMSCKASGYTFTNYYMNWVKQSHGKSLEWIGVINPYNGDIAYSQKFKGKATLTVDKSSSTAYMELKSLTSEDSAVYYCARDDGYYVYYFDCWGQGTTLTVSS
VL: DIQMTQSPSSLSASLGERVSLTCRASQDIGGSLNWLQQKPDGTIKRLIYSTSTLDSGVPKRFSGSRSGSDYSLTISSLESEDFADYYCLQNANSPPTFGGGTKLEIK
notes: Mouse mAb from hybridoma; also called mouse anti-LAG-3 mAb B11
A word on the Kd: it is a measure of binding affinity in units of concentration. High values mean a looser complex, low ones a tighter complex. Consider B1, for which the Kd with human LAG-3(ECD)-huFc turned out to be 1.18 nM.

For the molecule APGPHPAAPSSWG (also called peptide 12-24) [12-24], the binding result in the assay with B4C and in the assay with B3C was “binds” throughout.

Take PGHPLAPGPHPAAPSS (also called peptide 7-22) [7-22]: the binding result in the assay with B4C and in the assay with B3C was “no binding (tested: 50X peptide)” each time.

B2: B7 (antibody, V domains shown)
VH: EFQLQQSGPELVKPGASVKISCKASGYSFSDYNLNWVKQSNGKTLEWIGLINLDSAATVYNQKFKGKATLTIDQSSTTAYMQLNSLTSDDSAVYYCASYDYWGQGTTLTVSS
VL: DIQMTQSPSSLSASLGERVSLSCRASQDISHYLNWFQQKPDGTFKRLIYETSTLDFGVPKRFSGSRSGSDYSLTIGSLESEDFADYYCLQYATYPLTFGAGTKLELK
notes: Mouse mAb from hybridoma; also called mouse anti-LAG-3 mAb B7
In the assay with human LAG-3(ECD)-huFc, B2 yielded a Kd of 0.758 nM.

B3: B10 (antibody, V domains shown)
VH: EFQLQQSGPELVKPGASVKISCKASGYSFTDYNLNWVKESNGKSLEWIGLITLDYGTTIYNQKFKGKATLTVDQSSSIAYMQLNSLTSDDSAVYYCACYDYWGQGTTLTVSS
VL: B2 VL with S22T, H31N, E50A, G76S, T93S
notes: Mouse mAb from hybridoma; also called mouse anti-LAG-3 mAb B10
B3: the Kd in the assay with human LAG-3(ECD)-huFc was found to be 1.1 nM.

B4: B2 (antibody, V domains shown)
VH: QVHLQQSGPQLVKPGASVKISCKASGYTFTDYYINWVKQRPGQGLEWIGWIFPGSGSTYYNEKFKGKATLTVDKSSSTAYMLLSSLTSEDSAVYFCVRIHFDYDWFFDVWGTGTTVTVSS
VL: DVVMTQTPLSLPVSLGDQASISCRSSQSIVHSNGNTYFYWYLQKPGQSPNLLIYRVSNRFSGVPDRFSGSGSGTDFTLKISRVEAEDMGVYYCFQGTHVPYTFGGGTKLEIK
notes: Mouse mAb from hybridoma; also called mouse anti-LAG-3 mAb B2
Take B4: the Kd in the assay with human LAG-3(ECD)-huFc was 4.09 nM.

For PHPAAPSSWGPRPRRY (also called peptide 15-30) [15-30], the binding result with B4C, with B7/IgG4 and with B3C was “binds” in each case.

For the molecule LAPGPHPAAPSSWG (also called peptide 11-24) [11-24], the binding result with B4C and with B3C was “binds” throughout.

On to HPAAPSSWGPRPRRY (also called peptide 16-30) [16-30], for which the binding result in the assay with B4C, with B7/IgG4 and in the assay with B3C was “binds” in each case.
